B1: VHH216B2 (VHH)
VHH: QVQLVESGGGLVQPGGSLRLSCATSEHTFGTYRMGWFRQAPGKEREFVAGISWTGQTTYYAASVKGRFAISKDNAKNTVYLQMNTLKSDDTAVYYCAVETNNLGRWDRPSEYDYWGQGTQVTVSS
B2: VHH241B2 (VHH)
VHH: QVQLVESGGGLVQLGDSLRLSCAASGRGFSSWTMAWFRQALGKRREFVAAITATGARTCSAESEGRFTISRDNAKNMVFLQMNSLKAEDTAVYYCAATGIASWDPGMADKYTYWGQGTQVTVSS
B3: VHH86B1 (VHH)
VHH: QVQLVESGGGLMQAGGSLRLSCALSRGIFSAYAMGWFRQVQGKEREFVSGISRSGSTTDYVDTAKGRFTISRDNARDTVYLQMNSLKPEDTAVYYCAAVTGTFPSSTYHNANAYHHWGQGTQVTVSS
B4: VHH97B1 (VHH)
VHH: QVQLVESGGGLAQAGGSLRLSCAASGRTFSNDDMAWFRQAPGKEREFVAHIDRNAASTNYADSVKGRFTISRDNAKNTVYLQMTRLKPEDTAVYYCAADPDHFGTTWYQQYTYWGPGTQVTVSS
B5: VHH104B1 (VHH)
VHH: EVQLVESGGGLVQPGGSLRLFCAASRSIFNINIMGWYRQAPGKQREWLASITSGGSTFYADSVKDRFTISRDSVKNTVYLQMNSLKPEDTAAYYCNRYRSVPLNTVYPWGQGTLVTVSS
B6: VHH108B1 (VHH)
VHH: EVQLVESGGGLVQPGGSLTLSCTASGFRFSDRSMGWYRQAPGKQRELVAAITVGGSTNYADSVKGRFTISRDNAKNTVYLQMNSLKPEDTALYYCNRRYPPDDYWGQGTQVTVSS
B7: VHH115B1 (VHH)
VHH: QVQLVESGGGLVQAGGSLRLSCLASGRTSNYFMGWFRQAPGKEREFVAAISRSGGGTWYADSVKGRFAISRDNAKNTVNLQMNSLKREDTAVYYCAADRRTGTSVYTVDEYDYWGQGTQVTVSS
B8: VHH32B1 (VHH)
VHH: EVQLVESGGGLVQPGGSLRLSCAASGFTFQNYAMSWLRKAPGEGLEWVSVINSGGGSTLYADSVKGRFTISRDNAKNTLYLQMHSLKSEDTAVYFCAKRRDDSTFGSLLYTHRGQGTQVTVSS
B9: VHH137B1 (VHH)
VHH: QVQLVESGGGLVQAGGSLRLSCAASGRTFRTYAMGWFRQAPGKDREVVGIAAWKVASTYYVDYGDSVRGRFTISRDDAKSTVYLQMNNLMPEDTAVYYCAAGAFRTDWRSYAYWGQGTQVTVSS
B10: VHH154B1 (VHH)
VHH: QVQLQESGGGLVQVGDSLRLSCVASGRIFGVNTRAWYRQAPGNQRELVAQISSGGNINYADSVKGRFTISMDKFTDTVYLQMNSLKPEDTAIYRCAAHRQHPYADVWGQGTQVSVSS
B11: VHH174B1 (VHH)
VHH: QVQLVESGGGAVQAGGSLRLSCAASGLTSRHYVMAWFRQAPGIEREFVASIWWGGSTYYADSVKDRFTISRDNAENTVYLQMNSLKPEDTAVYRCAVGTKIGTMGPRYDYWGQGTQVTVSS
B12: VHH187B1 (VHH)
VHH: EVQLVESGGGLVQPGGSLRLSCAASGFTLDYYAIGWFRQAPGKEREGVSCISSSDRSTWYADSVKGRFTISRDNAKNTVYLQMHSLKPEDTAVYYCATPCYSDYDPEGYEYDYWGQGTQVTVSS
B13: VHH195B1 (VHH)
VHH: QVQLVESGGGLVQAGGSLRLSCAASGRTFGTYAMGWFRQAPGKERDFVARISNSGAFTHYADSVKGRFTISRDNAKNTVYLHMNSLENGDTAAYYCVATRGTNSAYYTRSTMYEYWGQGTQVTVSS
B14: VHH233B1 (VHH)
VHH: QVQLVESGGGLVQAGGSLRLSCAASRSISSFNEMAWYRQAPGEQRELVATIVSTVGFTNYADSVKGRFTISRDNAKNTVYLQMNSLKAEDTAVYYCNARRISTDYWGQGTQVTVSS
B15: VHH238B1 (VHH)
VHH: QLQLVESGGGLVQPGGSLRLSCAASGFTFSSYGMSWVRQAPGKGLEWVSYISAGGGTTTYVDFVKGRFTISRDNAKNMLYLQMNSLKPEDTAVYYCVHAADGSRGQGTQVTVSS
B16: VHH41B1 (VHH)
VHH: EVQLVESGGGLVQAGGSLRVACAASGRTFSTYAMAWFRQAPGKEREFVAHILWSGGSTVYPDSVRGRFTISRDNAKNTVYLQMNSLKPEDTAVYYCAQKSGRQVYRIDSWDSFDYWGQGTSVTVSS
B17: VHH245B1 (VHH)
VHH: QVQLQESGGGLVQAGGSLRLSCAASGSIASINAMGWYRQAPGKQRDFVARIQLSGQTSYAHSVRGRFTISRDNAKNTVYLQMNNLKPEDTAVYVCAASNTGSLYGLRNYWGQGTQVTVSS
B18: VHH258B1 (VHH)
VHH: QVQLVESGGGLVQAGGSLRLSCAASGRTFSSYVMGWFRQAPGQEREFVAAIMRNGIMTYYADSVKGRFTISRDNAKNTVYLQMNTLKPDDTAVYYCAAASRVGVSISQSSSYTSWGQGTQVTVSS
B19: VHH263B1 (VHH)
VHH: EVQLVESGGGLVQAGGSLRLSCAASGSKFSFNAMGWYRQTPGKQRELVAIIINGDMINYADSVKGRFTISRDNAKNTMYLQMNSLKPEDTAVYYCKMTRYVYDYWGQGTQVTVSS
B20: VHH276B1 (VHH)
VHH: QVQLVESGGGLVQAGASLRLSCAASGRTFSSYAMGWFRQAPGKEREFVAAISGGTPNNIYYTNYKDAVRGRFTISRDNAKNTVYLQMSSLKPEDTAVYYCGATMGRYWNTGGYDYWGQGTQVTVSS
B21: VHH321B1 (VHH)
VHH: QVQLVESGGGLVQPGGSLRLSCIASGFTFSDYAMKWVRRPPGKGLEWVSVIDSEGPTIKYSDAVRGRFTISRDNAKNTLYLQMNSLKPEDTAVYYCAKSNGGSAFSSVLYTDRGQGTQVTVSS

Each binder was assayed against T1, cyno IL-12RB2 with C-terminal HA tag, transiently expressed on HEK-293T cells (cyno, UniProt A0A2K5VNI7 24-860) (assay: FACS, periplasmic extract, HEK-293T).
T1 construct: whole, on cells; also called cyno IL-12Rβ2
T1 sequence: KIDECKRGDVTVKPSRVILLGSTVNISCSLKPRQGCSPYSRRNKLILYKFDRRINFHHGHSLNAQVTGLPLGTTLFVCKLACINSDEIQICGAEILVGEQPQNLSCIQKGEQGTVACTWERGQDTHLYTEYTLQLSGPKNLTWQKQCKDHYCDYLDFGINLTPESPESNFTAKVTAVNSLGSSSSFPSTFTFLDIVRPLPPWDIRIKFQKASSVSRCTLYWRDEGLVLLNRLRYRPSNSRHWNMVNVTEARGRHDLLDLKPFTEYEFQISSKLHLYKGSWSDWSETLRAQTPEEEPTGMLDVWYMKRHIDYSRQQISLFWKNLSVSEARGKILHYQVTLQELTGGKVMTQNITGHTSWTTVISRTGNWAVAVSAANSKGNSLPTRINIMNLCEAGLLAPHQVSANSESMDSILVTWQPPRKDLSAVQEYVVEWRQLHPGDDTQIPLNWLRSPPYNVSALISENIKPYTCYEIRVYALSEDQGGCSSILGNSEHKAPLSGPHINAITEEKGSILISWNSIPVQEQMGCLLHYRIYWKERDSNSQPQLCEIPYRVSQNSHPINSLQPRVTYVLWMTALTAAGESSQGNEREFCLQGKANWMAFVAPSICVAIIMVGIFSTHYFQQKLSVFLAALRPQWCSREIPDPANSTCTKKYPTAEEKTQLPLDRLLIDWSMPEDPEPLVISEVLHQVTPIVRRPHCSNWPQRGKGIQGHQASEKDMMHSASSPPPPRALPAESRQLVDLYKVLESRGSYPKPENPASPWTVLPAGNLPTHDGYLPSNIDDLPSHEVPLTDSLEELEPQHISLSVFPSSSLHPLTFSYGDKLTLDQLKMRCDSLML

Q: Which FOB does the source give for B1 here?
A: Its FOB is 0.98 fold.

Q: For B2, which FOB is on record?
A: The FOB was 2.37 fold.

What follows are binders tested against T2, human IL-12Rβ1-his (Acro Biosystems), biotinylated (human, UniProt P42701 24-545, biotinylated) (assay: ELISA, periplasmic extract).
T2 construct: bought; captured on Neutravidin in the ELISA; also called Bio-huIL-12Rβ1-His

Q: With B3 as the binder, how does the OD450 nm read?
A: The OD450 nm was 0.422.

Q: How did the OD450 nm turn out when B4 was run?
A: The OD450 nm was 0.409.

Q: With B5 as the binder, how does the OD450 nm read?
A: Its OD450 nm is 2.97.

Q: Which OD450 nm does the source give for B6 here?
A: Its OD450 nm is 2.73.

Q: With B7 as the binder, how does the OD450 nm read?
A: The OD450 nm was 1.9.

Q: For B8, which OD450 nm is on record?
A: Its OD450 nm is 1.28.

Q: With B9 as the binder, how does the OD450 nm read?
A: The OD450 nm was 3.31.

Q: B10 was tested. Which OD450 nm did it give?
A: Its OD450 nm is 2.85.

Q: Which OD450 nm does the source give for B11 here?
A: The OD450 nm was 1.19.

Q: Which OD450 nm does the source give for B12 here?
A: The OD450 nm was 0.125.

Q: Which OD450 nm does the source give for B13 here?
A: The OD450 nm was 2.93.

Q: How did the OD450 nm turn out when B14 was run?
A: The OD450 nm was 0.349.

Q: How did the OD450 nm turn out when B15 was run?
A: The OD450 nm was 3.33.

Q: Which OD450 nm does the source give for B16 here?
A: The OD450 nm was 0.413.

Q: Which OD450 nm does the source give for B17 here?
A: The OD450 nm was 3.12.

Q: With B18 as the binder, how does the OD450 nm read?
A: The OD450 nm was 3.3.

Q: Which OD450 nm does the source give for B19 here?
A: Its OD450 nm is 0.144.

Q: With B20 as the binder, how does the OD450 nm read?
A: The OD450 nm was 3.2.

Q: B21 was tested. Which OD450 nm did it give?
A: The OD450 nm was 1.06.

Each binder was assayed against T3, human IL-12RB1 with C-terminal FLAG tag, transiently expressed on HEK-293T cells (human, UniProt P42701 24-662) (assay: FACS, periplasmic extract, HEK-293T).
T3 construct: whole, on cells

Q: Which FOB does the source give for B3 here?
A: The FOB was 104 fold.

Q: B4 was tested. Which FOB did it give?
A: Its FOB is 133 fold.

Q: With B5 as the binder, how does the FOB read?
A: The FOB was 152 fold.

Q: How did the FOB turn out when B6 was run?
A: Its FOB is 260 fold.

Q: For B7, which FOB is on record?
A: The FOB was 101 fold.

Q: B8 was tested. Which FOB did it give?
A: Its FOB is 78 fold.

Q: How did the FOB turn out when B9 was run?
A: Its FOB is 116 fold.

Q: Which FOB does the source give for B10 here?
A: Its FOB is 24 fold.

Q: For B11, which FOB is on record?
A: Its FOB is 80 fold.

Q: Which FOB does the source give for B12 here?
A: Its FOB is 86 fold.

Q: For B13, which FOB is on record?
A: The FOB was 78 fold.

Q: For B14, which FOB is on record?
A: Its FOB is 146 fold.

Q: For B15, which FOB is on record?
A: Its FOB is 50 fold.

Q: How did the FOB turn out when B16 was run?
A: The FOB was 48 fold.

Q: Which FOB does the source give for B17 here?
A: Its FOB is 78 fold.

Q: Which FOB does the source give for B18 here?
A: The FOB was 183 fold.

Q: B19 was tested. Which FOB did it give?
A: The FOB was 105 fold.

Q: Which FOB does the source give for B20 here?
A: The FOB was 31 fold.

Q: How did the FOB turn out when B21 was run?
A: The FOB was 119 fold.

The binders below were run against T4, cyno IL-12RB1 with C-terminal FLAG tag, transiently expressed on HEK-293T cells (cyno, UniProt A0A2K5VWV1 24-662) (assay: FACS, periplasmic extract, HEK-293T).
T4 construct: whole, on cells

Q: How did the FOB turn out when B3 was run?
A: Its FOB is 64 fold.

Q: How did the FOB turn out when B4 was run?
A: The FOB was 99 fold.

Q: With B5 as the binder, how does the FOB read?
A: The FOB was 161 fold.

Q: For B6, which FOB is on record?
A: Its FOB is 184 fold.

Q: With B7 as the binder, how does the FOB read?
A: Its FOB is 62 fold.

Q: With B8 as the binder, how does the FOB read?
A: The FOB was 129 fold.

Q: Which FOB does the source give for B9 here?
A: Its FOB is 152 fold.

Q: B10 was tested. Which FOB did it give?
A: Its FOB is 21 fold.

Q: For B11, which FOB is on record?
A: Its FOB is 68 fold.

Q: B12 was tested. Which FOB did it give?
A: Its FOB is 42 fold.

Q: B13 was tested. Which FOB did it give?
A: The FOB was 58 fold.

Q: How did the FOB turn out when B14 was run?
A: Its FOB is 81 fold.

Q: How did the FOB turn out when B15 was run?
A: The FOB was 44 fold.

Q: With B16 as the binder, how does the FOB read?
A: Its FOB is 19 fold.

Q: Which FOB does the source give for B17 here?
A: Its FOB is 36 fold.

Q: For B18, which FOB is on record?
A: The FOB was 91 fold.

Q: Which FOB does the source give for B19 here?
A: Its FOB is 89 fold.

Q: B20 was tested. Which FOB did it give?
A: Its FOB is 24 fold.

Q: How did the FOB turn out when B21 was run?
A: Its FOB is 93 fold.

From patent publication US20250019450A1 (DIAGONAL THERAPEUTICS, published 2025)
